In IntAct's records for PubMed 18067539:

B1: DNA-binding transcriptional repressor Mlc (Escherichia coli (strain K12)), P50456 (parent)
chain: MVAENQPGHIDQIKQTNAGAVYRLIDQLGPVSRIDLSRLAQLAPASITKIVREMLEAHLVQELEIKEAGNRGRPAVGLVVETEAWHYLSLRISRGEIFLALRDLSSKLVVEESQELALKDDLPLLDRIISHIDQFFIRHQKKLERLTSIAITLPGIIDTENGIVHRMPFYEDVKEMPLGEALEQHTGVPVYIQHDISAWTMAEALFGASRGARDVIQVVIDHNVGAGVITDGHLLHAGSSSLVEIGHTQVDPYGKRCYCGNHGCLETIASVDSILELAQLRLNQSMSSMLHGQPLTVDSLCQAALRGDLLAKDIITGVGAHVGRILAIMVNLFNPQKILIGSPLSKAADILFPVISDSIRQQALPAYSQHISVESTQFSNQGTMAGAALVKDAMYNGSLLIRLLQG
partner: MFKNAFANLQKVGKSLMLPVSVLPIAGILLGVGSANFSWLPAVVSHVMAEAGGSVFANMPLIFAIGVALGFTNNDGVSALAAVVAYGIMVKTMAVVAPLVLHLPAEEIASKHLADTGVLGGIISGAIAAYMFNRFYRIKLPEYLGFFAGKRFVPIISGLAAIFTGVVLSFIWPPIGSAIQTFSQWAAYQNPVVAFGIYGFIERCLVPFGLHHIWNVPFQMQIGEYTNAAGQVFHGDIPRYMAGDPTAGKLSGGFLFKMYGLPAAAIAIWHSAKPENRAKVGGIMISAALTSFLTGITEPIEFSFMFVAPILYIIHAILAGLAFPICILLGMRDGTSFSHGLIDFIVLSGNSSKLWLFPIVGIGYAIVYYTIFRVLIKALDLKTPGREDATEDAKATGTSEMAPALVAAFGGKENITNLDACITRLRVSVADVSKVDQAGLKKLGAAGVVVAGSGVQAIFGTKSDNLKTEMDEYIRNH

Variants of: B1
Conditions: with ptgcb_ecoli ptsG

Row | effect of a mutation on the interaction | Variant
1 | decreasing interaction strength | MVAENQPGHIDQIKQTNAGAVYRLIDQLGPVSRIDLSRLAQLAPASITKIVREMLEAHLVQELEIKEAGNRGRPAVGLVVETEAWHYLSLRISRGEIFLALRDLSSKLVVEESQELALKDDLPLLDRIISHIDQFFIRHQKKLERLTSIAITLPGIIDTENGIVHRMPFYEDVKEMPLGEALEQHTGVPVYIQHDISAWTMAEALFGASRGARDVIQVVIDHNVGAGVITDGHLLHAGSSSLVEIGHTQVDPYGKRCYCGNHGCLETIASVDSILELAQLRLNQSMSSMLHGQPLTVDSLCQAALRGDLLAKDIITGVGAHVGRILAIMVNLFNPQKILIGSPLSKAADILFPVISDSIRQQALPAYSQHISVESTQFSNQGTMAGAALVKDAMYNGSLLIRLLQA [G406A]
